Measurements taken from IntAct's records for PubMed 18532879.

B1: Nuclear polyadenylated RNA-binding protein NAB2 (Saccharomyces cerevisiae), P32505 (parent)
chain: MSQEQYTENLKVIVAEKLAGIPNFNEDIKYVAEYIVLLIVNGGTVESVVDELASLFDSVSRDTLANVVQTAFFALEALQQGESAENIVSKIRMMNAQSLGQSDIAQQQQQQQQQQQPDIAQQQPQQQPQQQPQQQPQQQPQQQPQQQPQQQPQQQPQLQPLQPQLGTQNAMQTDAPATPSPISAFSGVVNAAAPPQFAPVDNSQRFTQRGGGAVGKNRRGGRGGNRGGRNNNSTRFNPLAKALGMAGESNMNFTPTKKEGRCRLFPHCPLGRSCPHAHPTKVCNEYPNCPKPPGTCEFLHPNEDEELMKEMERTREEFQKRKADLLAAKRKPVQTGIVLCKFGALCSNPSCPFGHPTPANEDAKVIDLMWCDKNLTCDNPECRKAHSSLSKIKEVKPISQKKAAPPPVEKSLEQCKFGTHCTNKRCKYRHARSHIMCREGANCTRIDCLFGHPINEDCRFGVNCKNIYCLFRHPPGRVLPEKKGAAPNSNVPTNERPFALPENAIIENAPPQTSFTHQEQDTEMN
partner: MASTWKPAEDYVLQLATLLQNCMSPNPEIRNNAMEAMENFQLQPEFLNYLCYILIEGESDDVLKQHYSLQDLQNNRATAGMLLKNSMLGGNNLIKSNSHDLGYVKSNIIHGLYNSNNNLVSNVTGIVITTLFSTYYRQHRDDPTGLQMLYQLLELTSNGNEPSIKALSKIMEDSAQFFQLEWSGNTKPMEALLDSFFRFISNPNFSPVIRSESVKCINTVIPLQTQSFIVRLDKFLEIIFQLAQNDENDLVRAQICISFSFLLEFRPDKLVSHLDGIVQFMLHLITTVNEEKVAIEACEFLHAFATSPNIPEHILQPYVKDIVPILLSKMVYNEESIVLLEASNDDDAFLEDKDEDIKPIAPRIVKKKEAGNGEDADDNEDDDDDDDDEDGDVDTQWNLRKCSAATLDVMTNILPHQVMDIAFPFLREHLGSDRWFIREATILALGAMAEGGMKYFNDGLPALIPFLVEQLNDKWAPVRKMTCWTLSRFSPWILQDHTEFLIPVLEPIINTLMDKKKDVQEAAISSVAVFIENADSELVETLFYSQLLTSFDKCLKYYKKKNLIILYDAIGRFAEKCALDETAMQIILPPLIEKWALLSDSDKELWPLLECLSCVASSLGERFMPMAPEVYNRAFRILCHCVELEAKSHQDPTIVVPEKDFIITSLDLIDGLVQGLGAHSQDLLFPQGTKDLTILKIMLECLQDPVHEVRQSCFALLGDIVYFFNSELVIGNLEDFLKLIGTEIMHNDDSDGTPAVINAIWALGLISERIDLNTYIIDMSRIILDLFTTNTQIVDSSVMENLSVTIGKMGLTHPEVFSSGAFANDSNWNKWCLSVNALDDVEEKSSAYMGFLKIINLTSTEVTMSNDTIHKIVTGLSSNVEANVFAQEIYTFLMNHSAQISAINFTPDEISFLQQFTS

Variants of: B1
Settings: with imb2_yeast KAP104, P38217

**Q.** Which “effect of a mutation on the interaction” value does the source give for R218A;R219A;R222A;R226A;R229A here?
**A.** Its value is “disrupting interaction strength”.

**Q.** With R222A;P238A;L239A as the variant, how does the “effect of a mutation on the interaction” value read?
**A.** Its value is “disrupting interaction”.

**Q.** R235A was tested. Which “effect of a mutation on the interaction” value did it give?
**A.** The value was “disrupting interaction”.

**Q.** R235A;P238A;L239A was tested. Which “effect of a mutation on the interaction” value did it give?
**A.** The value was “disrupting interaction”.

**Q.** Which “effect of a mutation on the interaction” value does the source give for F236A here?
**A.** Its value is “disrupting interaction”.

**Q.** Which “effect of a mutation on the interaction” value does the source give for P238A;L239A here?
**A.** The value was “disrupting interaction”.

**Q.** With L239D as the variant, how does the “effect of a mutation on the interaction” value read?
**A.** Its value is “disrupting interaction strength”.

**Q.** For L239E, which “effect of a mutation on the interaction” value is on record?
**A.** Its value is “disrupting interaction strength”.

**Q.** For L239I, which “effect of a mutation on the interaction” value is on record?
**A.** The value was “disrupting interaction strength”.

**Q.** Which “effect of a mutation on the interaction” value does the source give for L239P here?
**A.** Its value is “disrupting interaction strength”.
